Tests used:
Assay in all cases: cell-based or functional assay
[1] = biological target: S protein of SARS-CoV-2 alpha strain 2 (Accession ID EPI_ISL_804007; on infectious virus) (SARS-CoV-2, UniProt P0DTC2 14-1273)
[2] = biological target: S protein of SARS-CoV-2 alpha strain 1 (JPN/QK002/2020, Accession ID EPI_ISL_768526; on infectious virus) (SARS-CoV-2, UniProt P0DTC2 14-1273)
[3] = biological target: S protein of SARS-CoV-2 delta strain JPN/TKYTK1734/2021 (on infectious virus) (SARS-CoV-2, UniProt P0DTC2 14-1273)

Measured: 中和活性 IC50 (inhibition of infection of VeroE6/TMPRSS2 cells)

B1: EV053273 (antibody, V domains shown)
VH: QVQLVQSGAEVKEPGTSVKVSCKASGYIFTGYYIHWVRQAPGQGLEWMGWINPNSGGRNYTQKFQGRVTMTRDKSISTVYMELSGLRSDDTAIYYCARDNSWSTVQFCLDYWGQGTLVTVSS
VL: QSALTQPPSASGSPGQSVTISCTGTSSDVGSYNYVSWYQQYPGKAPKLMIYEVSKRPSGVPDRFSGSKSGNTASLTVSGLQAEDEADYYCSSYGGSNNLVFGGGTKLTVLG
≤ 10 ng/mL: all assays above

Reference: WO2022250107A1 (dated 2022)
